{"source": "patent US20240384250A1", "about": "“FIBROBLAST GROWTH FACTOR 23 MODULATING COMPOUNDS” (THE UAB RESEARCH FOUNDATION, priority 2021, published 2024)", "key": {"[1]": {"test_system": "phosphorylated ERK in HEK293T cells", "assay": "ERK phosphorylation in serum-starved HEK293 cells (Western blotting)", "assay_type": "cell-based, human", "experimental": "The sample (20 μl) was loaded onto Mini-PROTEAN TGX Precast Gel 4-20% for experiments with <9 samples (4568094, Bio-Rad) or Criterion TGX Precast Gel 4-20% (5678094, Bio-Rad) for experiments with >9 samples. Gels were run in 1× Tris/Glycine/SDS buffer (1610732, Bio-Rad) at 150 V and stopped when the sample dye reached the end of the gel. Gels were removed and electrotransferred via a semi-dry cassette (1703940, Bio-Rad) in I× Tris/Glycine buffer (1610734, Bio-Rad) with 20% methanol. Gels were transferred onto polyvinylidene diflouride membranes (IPVH00010, Millipore) at 20 V for 1 hour. Membranes were then blocked in 5% dried milk with 0.5% Tween 20 diluted in Tris-buffered saline (TBST; pH 7.5) for 1 hour and probed with antibodies against specific antigens at 1:1000 in TBST with 5% dried milk. Blots were washed 3× for 5 minutes in TBST and probed with HRP-coupled secondary antibodies against specific species at 1:10,000 in TBST with 5% dried milk. Membranes were imaged on the SRX-101A X-ray film developer (Konica Minolta).\nTo determine the cellular activity of paracrine FGFs, the activation/phosphorylation of ERK in HEK293 cells after treatment was studied. HEK293 cells were seeded in 6-well plates in DMEM (26140079, Gibco) supplemented with I× Pen/Strep (15140122, Gibco) and 10% FBS (26140079, Gibco) and grown for 48 hours. Upon reaching 80% confluence, cells were serum starved overnight in DMEM and 1× Pen/Strep without FBS. The medium was changed, and cells were treated with sKL at 2 μg/ml or vehicle (sKL elution buffer: 25 mM Tris ph 8.0, 500 mM NaCl) for 15 minutes. Cells were then treated with various FGFs at 1.1 nM for 10 minutes. Cells were lysed in 200 μl of RIPA with the addition of a protease inhibitor (11836153001, Roche) and phosphatase inhibitors (P5726 and P0044, Sigma-Aldrich) for 30 minutes. The mixture was then centrifuged at 20,000 g for 60 minutes to remove all cell debris. One hundred microliters of 1× Laemmli sample buffer (1610737, Bio-Rad) with 1.42 M 2-mercaptoethanol was added, and samples were boiled for 5 minutes. Twenty microliters of samples was loaded onto 12% SDS-PAGE gels and analyzed using Western blotting for total and phosphorylated ERK."}, "[2]": {"test_system": "neonatal rat ventricular myocytes", "assay": "Hypertrophic growth of isolated neonatal rat ventricular myocytes (cell area)", "assay_type": "cell-based", "experimental": "Neonatal rat ventricular myocytes (NRVMs) were isolated using a kit according to the manufacturer's protocol (LK003300, Worthington Biochemical Corporation), as done previously.^13,16,17 Briefly, hearts from 1- to 3-day-old Sprague Dawley rats (Envigo) were harvested and minced in calcium- and magnesium-free Hanks balanced salt solution and the tissue was digested with 50 μg/ml of trypsin at 4° C. for 20 to 24 hours. Soybean trypsin inhibitor in Hanks balanced salt solution was added, and the tissue was further digested with collagenase (in Leibovitz L-15 medium) under slow rotation (0.14 g) at 37° C. for 45 minutes. Cells were broken up by triturating the suspension 20× with a standard 10-ml plastic serological pipette. Cells were then filtered through a cell strainer (70 μm, BD Falcon). Cells were incubated at room temperature for 20 minutes and spun at 100 g for 5 minutes. The cell pellet was resuspended in plating medium (DMEM Base [10013CV, Corning], 17% M199 [12350039, Gibco], 15% FBS [26140079, Gibco], I× Pen/Strep [15140122, Gibco]). For cell tracings, NRVMs were grown in 24-well plates on glass coverslips (CLS1760012, Chemglass). Slips were precoated with laminin (23017015, Invitrogen) at 10 μg/ml for 1 hour at 37° C. dissolved in PBS. Laminin was aspirated, and cells and medium were added. Cells were counted by a hemocytometer and plated at 4×10^5 cells per well. […] After 48 hours, maintenance medium was replaced, and after another 48 hours, cells were ready for treatment, giving a total of 72 hours of plating medium and 96 hours of maintenance medium before treatment. […]\nThe medium was aspirated, and cultured NRVMs were fixed in 2% paraformaldehyde (P-6148, Sigma-Aldrich) and 4% sucrose dissolved in PBS for 5 minutes followed by permeabilization with 1% Triton X-100 dissolved in PBS for 10 minutes. […] The cross-sectional area of myocytes was measured on the basis of α-actinin-positive staining using ImageJ software (v1.53, National Institutes of Health). […]"}}, "note": "“Also recorded” adds a separate entry of the source.", "data": [{"molecule": "sKL: recombinant soluble α-klotho ectodomain, mouse aa 35-982 and human aa 34-981, FLAG- or Strep/His-tagged, purified from HEK293 cells (protein, left off: small tags and cut ends, recombinant soluble α-klotho ectodomain, mouse aa 35-982 and human aa 34-981, FLAG- or Strep/His-tagged, purified from HEK293 cells) EPGDGAQTWARFSRPPAPEAAGLFQGTFPDGFLWAVGSAAYQTEGGWQQHGKGASIWDTFTHHPLAPPGDSRNASLPLGAPSPLQPATGDVASDSYNNVFRDTEALRELGVTHYRFSISWARVLPNGSAGVPNREGLRYYRRLLERLRELGVQPVVTLYHWDLPQRLQDAYGGWANRALADHFRDYAELCFRHFGGQVKYWITIDNPYVVAWHGYATGRLAPGIRGSPRLGYLVAHNLLLAHAKVWHLYNTSFRPTQGGQVSIALSSHWINPRRMTDHSIKECQKSLDFVLGWFAKPVFIDGDYPESMKNNLSSILPDFTESEKKFIKGTADFFALCFGPTLSFQLLDPHMKFRQLESPNLRQLLSWIDLEFNHPQIFIVENGWFVSGTTKRDDAKYMYYLKKFIMETLKAIKLDGVDVIGYTAWSLMDGFEWHRGYSIRRGLFYVDFLSQDKMLLPKSSALFYQKLIEKNGFPPLPENQPLEGTFPCDFAWGVVDNYIQVDTTLSQFTDLNVYLWDVHHSKRLIKVDGVVTKKRKSYCVDFAAIQPQIALLQEMHVTHFRFSLDWALILPLGNQSQVNHTILQYYRCMASELVRVNITPVVALWQPMAPNQGLPRLLARQGAWENPYTALAFAEYARLCFQELGHHVKLWITMNEPYTRNMTYSAGHNLLKAHALAWHVYNEKFRHAQNGKISIALQADWIEPACPFSQKDKEVAERVLEFDIGWLAEPIFGSGDYPWVMRDWLNQRNNFLLPYFTEDEKKLIQGTFDFLALSHYTTILVDSEKEDPIKYNDYLEVQEMTDITWLNSPSQVAVVPWGLRKVLNWLKFKYGDLPMYIISNGIDDGLHAEDDQLRVYYMQNYINEALKAHILDGINLCGYFAYSFNDRTAPRFGLYRYAADQFEPKASMKHYRKIIDSNGFPGPETLERFCPEEFTVCTECSFFHTRKS", "values": [{"measurement": "phospho-ERK levels in cells treated with FGF2", "setting": "[1]; sKL 2 μg/ml 15 minutes before FGF2", "value": "decreased phospho-ERK levels; also recorded: did not occur"}, {"measurement": "phospho-ERK levels in cells treated with FGF5", "setting": "[1]; sKL 2 μg/ml 15 minutes before FGF5", "value": "decreased phospho-ERK levels; also recorded: did not occur"}, {"measurement": "ERK phosphorylation in cells incubated with FGF23", "setting": "[1]; sKL 2 μg/ml 15 minutes before FGF23", "value": "induced ERK phosphorylation; also recorded: increased pERK levels"}, {"measurement": "phospho-ERK levels in cells treated with FGF8b", "setting": "[1]; sKL 15 minutes before FGF8b", "value": "did not occur"}, {"measurement": "FGF23-induced hypertrophy (increase in cell area)", "setting": "[2]; cotreatment with FGF23 25 ng/ml, 48 hours, sKL 100 ng/ml, anti-FGF23 1 μg/ml", "value": "FGF23 did not induce hypertrophy; also recorded: blocked this effect"}, {"measurement": "NRVM area, treatment by itself", "setting": "[2]; without FGF23, 48 hours", "value": "no effect"}]}, {"molecule": "FGF23: recombinant fibroblast growth factor 23 protein from R&D Systems (protein) YPDTSPLLGSNWGSLTHLYTATARTSYHLQIHRDGHVDGTPHQTIYSALMITSEDAGSVVITGAMTRRFLCMDLHGNIFGSLHFSPENCKFRQWTLENGYDVYLSQKHHYLVSLGRAKRIFQPGTNPPPFSQFLARRNEVPLLHFYTVRPRRHTRSAEDPPERDPLNVLKPRPRATPVPVSCSRELPSAEEGGPAASDPLGVLRRGRGDARGGAGGADRCRPFPRFV", "values": [{"measurement": "ERK phosphorylation induced by FGF", "setting": "[1]; FGF 1.1 nM for 10 minutes, absence of sKL", "value": "had no effect"}, {"measurement": "cell area", "setting": "[2]; FGF23 alone, 48 hours", "value": "induced hypertrophic growth; also recorded: increase in cell area; also recorded: stepwise elevation in the cell area"}]}]}
